Test results from patent US12517114B2, “Primary gastrointestinal stromal tumor cell culture medium, culture method and application thereof” (PRECEDO PHARMACEUTICALS CO., LTD, priority 2021, dated 2026).

B1: fibroblast growth factor 10: receptor tyrosine kinase ligand, medium additive (R&D) (protein, UniProt O15520 38-208, looked up)
Fibroblast growth factor 10: QALGQDMVSPEATNSSSSSFSSPSSAGRHVRSYNHLQGDVRWRKLFSFTKYFLKIEKNGKVSGTKKENCPYSILEITSVEIGVVAVKAINSNYYLAMNKKGKLYGSKEFNNDCKLKERIEENGYNTYASFNWQHNGRQMYVALNGKGAPRRGQKTRRKNTSAHFLPMVVHS
B2: platelet-derived growth factor BB: receptor tyrosine kinase ligand, medium additive (R&D) (protein, UniProt P01127 82-190, looked up)
Platelet-derived growth …: SLGSLTIAEPAMIAECKTRTEVFEISRRLIDRTNANFLVWPPCVEVQRCSGCCNNRNVQCRPTQVQLRPVQVRKIEIVRKKPIFKKATVTLEDHLACKCETVAAARPVT

Test system: primary gastrointestinal stromal tumor cells (GIST-1, GIST-2, GIST-3, GIST-4)
Experiment: Screening of factors added to the culture medium: cell count after 14 days of culture
Format: cell-based, human
Details: for Level of promoting cell proliferation: additive at the concentration of Table 1 in basic medium vs basic medium, 14 days, 2% oxygen, Collagen I coated plate, four patient samples
Experimental: Rat tail collagen type I (Collagen type I, manufactured by Corning Inc.) was diluted with ultrapure water in a ratio of 1:50 to prepare a collagen diluent. The collagen diluent was added 500 μl/well into a 24-well culture plate to completely cover the bottom of the culture plate wells. After standing in a incubator at 37° C. for 1 hour, the collagen diluent was removed to provide a culture plate coated with collagen.
First, a basic medium was prepared. To a commercial DMEM/F-12 medium, GlutaMAX-I (manufactured by Thermo Fisher […]) was added at a dilution ratio of 1:100, insulin-containing culture additive Insulin-Transferrin-Selenium-Ethanolamine (ITS-X, manufactured by Gibco) was added at a dilution ratio of 1:100, a ROCK kinase inhibitor Y27632 (manufactured by Sigma) was added at a final concentration of 10 µM, and commercial Primocin solution (manufactured by InvivoGen) (commercial product in concentration of 50 mg/ml) was added at a dilution ratio of 1:500, to obtain the basic medium.
Next, different types of additives (Table 1) were added to the basic medium to prepare culture mediums for gastrointestinal stromal tumor cells containing different components. The culture mediums with different components were added at a volume of 500 μl/well to 24-well plates coated with Collagen I, with 3 wells for per medium formulation. The GIST cells (GIST-1) isolated from GIST tissues in Section (1) of this example were inoculated in the 24-well culture plate coated with Collagen I at a cell density of 3×10^4/well, and were cultured under different medium formulations at 37° C., under 5% CO2 concentration and 2% oxygen concentration. The mediums were renewed every 3 days after the start of the culture. After 14 days of culture, cell counts were performed.
The tumor cells isolated from the other three gastrointestinal stromal tumor tissue samples were also cultured and counted in the same manner as above.

Row | Molecule | Level of promoting cell proliferation | Effect on proliferation of primary gastrointestinal stromal tumor cells (in words) (additive in basic medium, in at least three cases)
1 | B1 | + | promote the proliferation
2 | B2 | + | 
